Experimental findings from paper PMC5883317 (Journal of Molecular and Cellular Cardiology, 2018) are described below.

Experiment [1] addresses F-actin (rabbit skeletal actin) (rabbit) (UniProt P68135).
Experiment [2] deals with RLC-depleted isolated porcine β-cardiac myosin (porcine) (UniProt P79293). Kind of experiment: reconstitution of RLC-depleted myosin, SDS-PAGE densitometry.
The target of experiment [3] is cardiac myosin binding protein-C fragment spanning domains C0 to C2 (C0C2) (UniProt Q14896 1-452). Kind of experiment: MST.
The target of experiment [4] is T1, wildtype myosin regulatory light chain (WT-RLC), unlabeled recombinant (human, UniProt P10916 1-166).
T1 sequence (looked up): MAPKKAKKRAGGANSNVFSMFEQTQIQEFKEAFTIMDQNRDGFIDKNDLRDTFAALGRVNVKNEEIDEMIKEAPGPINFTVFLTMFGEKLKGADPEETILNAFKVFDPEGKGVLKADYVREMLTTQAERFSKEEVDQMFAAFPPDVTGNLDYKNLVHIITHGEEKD
Description: other fluorescence titration.

Positions count from the first letter of the chain named. Numbers in names are those of the source. Some results are limits rather than exact numbers.

Sequence of cardiac myosin binding protein-C fragment spanning domains C0 to C2 (C0C2) (Q14896 1-452): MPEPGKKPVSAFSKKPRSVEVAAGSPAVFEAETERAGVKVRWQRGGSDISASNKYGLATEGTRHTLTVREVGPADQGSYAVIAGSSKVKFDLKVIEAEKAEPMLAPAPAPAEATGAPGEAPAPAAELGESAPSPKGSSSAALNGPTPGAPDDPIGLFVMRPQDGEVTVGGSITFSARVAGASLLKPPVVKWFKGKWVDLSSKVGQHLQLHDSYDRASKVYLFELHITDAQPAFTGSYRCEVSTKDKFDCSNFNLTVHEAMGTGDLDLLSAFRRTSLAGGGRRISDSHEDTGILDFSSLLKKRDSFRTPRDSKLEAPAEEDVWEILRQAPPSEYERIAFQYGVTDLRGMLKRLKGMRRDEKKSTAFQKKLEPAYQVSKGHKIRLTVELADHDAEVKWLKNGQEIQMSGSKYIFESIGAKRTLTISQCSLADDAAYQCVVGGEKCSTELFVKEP

“porcine β-cardiac myosin fully reconstituted with R58Q-RLC (from UniProt P79293 1-1935; P10916 1-166) (complex)”: in experiment [1], the KM for F-actin of the F-actin activated myosin ATPase (Michaelis-Menten fit) was 2.91 µM.
The same measure, in the same setting: to “porcine β-cardiac myosin fully reconstituted with WT-RLC (from UniProt P79293 1-1935; P10916 1-166) (complex)” belongs 1.5 µM.

B1: wildtype myosin regulatory light chain (WT-RLC), unlabeled recombinant (natural protein)
chain: T1 sequence (looked up)
As usually defined, the Kd is the constant that tells how readily two partners part at equilibrium. Turning to B1, in experiment [2], the Kd was determined as 4 µM.

B2: myosin regulatory light chain with the hypertrophic cardiomyopathy mutation R58Q (R58Q-RLC), unlabeled recombinant (natural protein)
chain: T1 sequence (looked up) with R58Q
In turn, B2 registered a Kd in experiment [2] of 4 µM.

B3: Alexa 647 labelled WT-RLC (natural protein, human, UniProt P10916 1-166, looked up)
chain: T1 sequence (looked up)
modifications: Alexa 647 (labelled with Alexa 647-NHS; site not stated)
The molecule B3 returned a Kd in experiment [3] of 8.6 µM.

B4: Alexa 647 labelled R58Q-RLC (natural protein, human, UniProt P10916 1-166, looked up)
chain: T1 sequence (looked up) with R58Q
modifications: Alexa 647 (labelled with Alexa 647-NHS; site not stated)
In experiment [3], B4 showed a Kd of 9.7 µM.
With ERRDSLLVIQWNIRAFMGVKNWPWMKLYFKIK [RLC binding site peptide of the human β-cardiac myosin heavy chain (amino acids 805–837)], the Kd in experiment [4] is under 0.5 µM.
